Measured values published in publication PMC10547724, “Structural insights into the conformational changes of BTR1/SLC4A11 in complex with PIP2” (Nature Communications, 2023).
Where a chain is given by its changes, count along the chain named. In names and notes the source's numbering stands.

Molecular target: the molecule itself
Assay: cryo-EM structure; single-particle cryo-EM of protein purified in GDN micelles (150 mM NaCl, 20 mM HEPES pH 7.4); wild type apo or with NH4Cl (outward-facing), R125H mutant (inward-facing; pH not named for it)

B1: BTR1 (SLC4A11), full-length human, wild type (natural protein, UniProt Q8NBS3-1 1-891, looked up)
chain: MSQVGGRGDRCTQEVQGLVHGAGDLSASLAENSPTMSQNGYFEDSSYYKCDTDDTFEAREEILGDEAFDTANSSIVSGESIRFFVNVNLEMQATNTENEATSGGCVLLHTSRKYLKLKNFKEEIRAHRDLDGFLAQASIVLNETATSLDNVLRTMLRRFARDPDNNEPNCNLDLLMAMLFTDAGAPMRGKVHLLSDTIQGVTATVTGVRYQQSWLCIICTMKALQKRHVCISRLVRPQNWGENSCEVRFVILVLAPPKMKSTKTAMEVARTFATMFSDIAFRQKLLETRTEEEFKEALVHQRQLLTMVSHGPVAPRTKERSTVSLPAHRHPEPPKCKDFVPFGKGIREDIARRFPLYPLDFTDGIIGKNKAVGKYITTTLFLYFACLLPTIAFGSLNDENTDGAIDVQKTIAGQSIGGLLYALFSGQPLVILLTTAPLALYIQVIRVICDDYDLDFNSFYAWTGLWNSFFLALYAFFNLSLVMSLFKRSTEEIIALFISITFVLDAVKGTVKIFWKYYYGHYLDDYHTKRTSSLVSLSGLGASLNASLHTALNASFLASPTELPSATHSGQATAVLSLLIMLGTLWLGYTLYQFKKSPYLHPCVREILSDCALPIAVLAFSLISSHGFREIEMSKFRYNPSESPFAMAQIQSLSLRAVSGAMGLGFLLSMLFFIEQNLVAALVNAPENRLVKGTAYHWDLLLLAIINTGLSLFGLPWIHAAYPHSPLHVRALALVEERVENGHIYDTIVNVKETRLTSLGASVLVGLSLLLLPVPLQWIPKPVLYGLFLYIALTSLDGNQLVQRVALLLKEQTAYPPTHYIRRVPQRKIHYFTGLQVLQLLLLCAFGMSSLPYMKMIFPLIMIAMIPIRYILLPRIIEAKYLDVMDAEHRP
notes: human BTR1 (SLC4A11), full length, residues 1-891 (NTD 1-307, TMD 336-891), amplified from human HEK293 cDNA; GFP and His tag removed with TEV protease before gel filtration; Residues 1-103, 308-335 and 888-891 were not built in the model; also called NaBC1; bicarbonate transporter-related protein-1; source: HEK293F cells, baculovirus (BacMam) infection, purified (Ni-NTA, TEV cleavage, gel …)
Q: How did the “stoichiometry N” value turn out when B1 was run?
A: The value was 2.

B2: BTR1 (SLC4A11) R125H, full-length human, pathogenic mutant (natural protein, UniProt Q8NBS3-1 1-891, looked up)
chain: B1 chain with R125H
notes: human BTR1 (SLC4A11), full length, with the disease-associated mutation R125H made in the PBM-SLC4A11 plasmid; GFP and His tag removed with TEV protease before gel filtration; also called BTR1-R125H; BTR1_(IF/R125H); source: HEK293F cells, baculovirus (BacMam) infection, purified (Ni-NTA, TEV cleavage, gel filtration) in GDN micelles; not shown: GFP, C-terminal, cleaved; His8, C-terminal, cleaved
Q: With B2 as the protein, how does the “stoichiometry N” value read?
A: The value was 2.
